In US20200231645A1:

What was measured:
[1] = biological target: PCSK9 (UniProt Q8NBP7); test: cell-based or functional assay
[2] = biological target: human GLP-1 receptor (human) (UniProt P43220); test: cell-based or functional assay
Sequence of human GLP-1 receptor (human) (P43220 24-463): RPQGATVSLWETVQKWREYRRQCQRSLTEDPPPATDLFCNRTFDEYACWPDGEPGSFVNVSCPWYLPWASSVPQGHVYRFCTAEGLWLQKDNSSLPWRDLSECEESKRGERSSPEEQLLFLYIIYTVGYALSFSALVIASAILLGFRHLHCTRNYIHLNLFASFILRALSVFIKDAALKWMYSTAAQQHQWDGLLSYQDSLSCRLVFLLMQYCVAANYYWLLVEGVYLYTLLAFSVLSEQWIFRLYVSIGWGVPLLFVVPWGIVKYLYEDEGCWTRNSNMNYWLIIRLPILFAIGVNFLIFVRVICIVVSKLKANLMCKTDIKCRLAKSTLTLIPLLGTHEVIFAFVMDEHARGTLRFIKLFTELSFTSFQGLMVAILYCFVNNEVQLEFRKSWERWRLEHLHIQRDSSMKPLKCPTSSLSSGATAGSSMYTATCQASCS

Alirocumab (antibody)
LDL-R expression in mouse liver, Percentage of baseline (%), dose of inhibitor 22 nmol/kg [1]: 157%

Semaglutide (peptide)
EC50 (pM) 0% HSA [2]: 7.3 pM | EC50 (pM) 1% HSA [2]: 210 pM
